This is an account of results in patent publication US20260250341A1.

Positions count from the first letter of the chain named. In names and notes the source's numbering stands.

Test [1] addresses Recombinant Human FGFR1 alpha (IIIc) Fc Chimera Protein (R&D systems, 658-FR-050) (human) (UniProt P11362). As to the kind of experiment: ELISA: FGFR1-Fc coated at 0.5 ug/ml, FGF sample at 80 ng/ml, biotinylated anti-FGF antibody BAM233 and streptavidin-HRP, blank subtracted; sample kept 0 h at 37 C. A general note: An ELISA detects its analyte on a solid surface through an enzyme-linked reagent.

The target is the same in test [2]. The test can be described thus: ELISA: FGFR1-Fc coated at 0.5 ug/ml, FGF sample at 80 ng/ml, biotinylated anti-FGF antibody BAM233 and streptavidin-HRP, blank subtracted; sample kept 6 h at 37 C.
For test [3] the target is unchanged. The test can be described thus: ELISA: FGFR1-Fc coated at 0.5 ug/ml, FGF sample at 80 ng/ml, biotinylated anti-FGF antibody BAM233 and streptavidin-HRP, blank subtracted; sample kept 24 h at 37 C.
The target is the same in test [4]. The test can be described thus: ELISA: FGFR1-Fc coated at 0.5 ug/ml, FGF sample at 80 ng/ml, biotinylated anti-FGF antibody BAM233 and streptavidin-HRP, blank subtracted; sample kept 48 h at 37 C.

Sequence of Recombinant Human FGFR1 alpha (IIIc) Fc Chimera Protein (R&D systems, 658-FR-050) (human) (P11362 22-376, change not shown): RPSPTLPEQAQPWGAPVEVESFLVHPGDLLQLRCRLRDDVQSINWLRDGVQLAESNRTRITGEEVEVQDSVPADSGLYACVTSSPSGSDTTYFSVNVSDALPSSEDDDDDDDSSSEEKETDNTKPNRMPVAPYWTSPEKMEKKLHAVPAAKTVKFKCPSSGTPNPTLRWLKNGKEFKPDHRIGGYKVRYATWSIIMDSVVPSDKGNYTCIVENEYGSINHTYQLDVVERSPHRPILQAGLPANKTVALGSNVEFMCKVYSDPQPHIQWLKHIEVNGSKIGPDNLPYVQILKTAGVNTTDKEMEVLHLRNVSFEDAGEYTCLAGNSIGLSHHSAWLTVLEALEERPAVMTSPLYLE

B1: FGF320 (FGF1 + FGF2-CHIMERA_Pig) (ligand)
chain: MANYKKPKLLYCSNGGHFLRIHPDGRVDGVREKSDPHIKLQLQAEERGVVSIKGVCANRYLAMDTSGLLYGSQTPSEECLFLERLEENHYNTYTSKKHAEKNWFVGLKKNGSCKRGPRTHYGQKAILFLPLPV
In the case of B1, the Absorbance (450 nm) (absorbance (450 nm)) in test [1] was 2.1; in test [2], 0.9; in test [3], 0.7; in test [4] it was 0.6.

B2: FGF323 (FGF1 + FGF2-CHIMERA_Pig_C12S; Q43I; A62C; H89G; C113A) (ligand)
chain: B1 chain with C12S, Q43I, A62C, H89G, C113A
Turning to B2, the Absorbance (450 nm) (absorbance (450 nm)) in test [1] turned out to be 2.5; in test [2], 2.4; in test [3] it was 2.3; in test [4], 2.3.
